According to US6890910B1, “Murd protein and gene of Pseudomonas aeruginosa” (Merck & Co., Inc., priority 1998, dated 2005):

T1: recombinant MurD from P. aeruginosa (Pseudomonas aeruginosa, UniProt Q9HVZ9)
T1 construct: 6x His (pET-15b vector-encoded) (N); made in house; host or cells: E. coli BL21 (DE3)/pLysS
T1 sequence (Q9HVZ9 whole entry, looked up): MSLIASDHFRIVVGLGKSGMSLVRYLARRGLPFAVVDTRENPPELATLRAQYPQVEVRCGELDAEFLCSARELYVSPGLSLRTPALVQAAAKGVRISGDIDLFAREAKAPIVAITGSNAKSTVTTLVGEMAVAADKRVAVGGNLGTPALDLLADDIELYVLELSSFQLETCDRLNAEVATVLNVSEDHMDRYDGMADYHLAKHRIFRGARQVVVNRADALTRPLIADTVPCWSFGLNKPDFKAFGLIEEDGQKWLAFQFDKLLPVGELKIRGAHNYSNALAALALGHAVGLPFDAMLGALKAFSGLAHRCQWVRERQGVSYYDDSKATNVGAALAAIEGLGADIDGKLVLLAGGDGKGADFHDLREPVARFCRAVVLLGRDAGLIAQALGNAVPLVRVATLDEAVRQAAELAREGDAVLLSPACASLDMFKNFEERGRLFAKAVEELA

B1: P. aeruginosa MurD: Recombinant UDP-N-acetylmuramyl-L-alanine:D-glutamate ligase of Pseudomonas aeruginosa, over-produced as His-tagged fusion protein in E. coli (protein, listed as Pseudomonas aeruginosa)
chain: T1 sequence (Q9HVZ9 whole entry, looked up)
modifications: His tag
notes: Recombinant UDP-N-acetylmuramyl-L-alanine:D-glutamate ligase of Pseudomonas aeruginosa, over-produced as His-tagged fusion protein in E. coli

Columns and labels:
[1] = biological target: recombinant MurD from E. coli (Escherichia coli, UniProt P14900); conditions: 350 μM UDP-N-acetyl-muramyl-L-alanine
Experimental: The ATP-dependent MurD activity was assayed by monitoring the formation of product ADP using the pyruvate kinase and lactate dehydrogenase coupled enzyme assay. The reaction was monitored spectrophotometrically.
Typically, the assay contained 100 mM BIS-TRIS-propane, pH 8.0, 200 μM NADH, 1 mM ATP, 20 mM PEP, 5 mM MgCl2, 1 mM DTT, 350 μM UDP-N-acetyl-muramyl-L-alanine, 1 mM D-glutamate, 33 units/ml of pyruvate kinase and 1660 units/ml of lactate dehydrogenase in a final volume of 200 or 400 μl. The mixture was incubated at 25° C. for 5 min and the reaction initiated by the addition of 1-10 μg of MurD.
Rates were calculated from the linear portions of the progress curves using the extinction coefficient for NADH, e=6220 cm^−1 M^−1. One unit of MurD activity is equal to 1 μmol of ADP formed per min at 25° C.

[2] = biological target: T1, recombinant MurD from P. aeruginosa; experiment: ATP-dependent MurD activity, pyruvate kinase/lactate dehydrogenase coupled enzyme assay; type: biochemical; conditions: UDP-N-acetylmuramyl-L-ala 350 μM, D-glutamate 1 mM, ATP 1 mM, 200 μl at 25° C.
From the text: The reaction was monitored spectrophotometrically.

Sequence of recombinant MurD from E. coli (P14900 whole entry): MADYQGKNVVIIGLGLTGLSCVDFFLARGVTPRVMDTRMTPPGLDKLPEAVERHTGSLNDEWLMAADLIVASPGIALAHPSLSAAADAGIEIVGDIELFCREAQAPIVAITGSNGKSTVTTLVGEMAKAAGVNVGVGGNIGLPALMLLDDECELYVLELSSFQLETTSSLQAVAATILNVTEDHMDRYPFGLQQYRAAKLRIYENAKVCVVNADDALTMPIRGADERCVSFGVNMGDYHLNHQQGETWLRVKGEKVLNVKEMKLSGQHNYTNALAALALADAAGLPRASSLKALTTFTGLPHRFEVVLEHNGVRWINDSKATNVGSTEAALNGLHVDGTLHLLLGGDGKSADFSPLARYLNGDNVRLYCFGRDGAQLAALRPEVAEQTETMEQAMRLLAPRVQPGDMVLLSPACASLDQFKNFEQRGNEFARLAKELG

| Molecule | substrate inhibition [1] | units ([2]; 0.0015 mg protein) [µmol/min] | Specific activity [2] |
| --- | --- | --- | --- |
| CC(=O)N[C@H]1C(OP(=O)(O)OP(=O)(O)OC[C@H]2O[C@@H](n3ccc(=O)[nH]c3=O)[C@H](O)[C@@H]2O)O[C@H](CO)[C@@H](O)[C@@H]1O[C@H](C)C(=O)N[C@H](C)C(=O)O (stereo partly drawn) [UDP-N-acetyl-muramyl-L-alanine] | substrate inhibition of the E. coli MurD occurs | – | – |
| B1 | – | 0.0047 | 3.12 (μmol/min)/mg |
